The values that follow come from US6528283 (INSTITUTE NATIONAL DE LA SANT ET DE LA RECHERCHE M DICALE, dated 2003).

To fix the notation:
B1: hD52 bait (GAL4 DNA-binding domain fused to full-length hD52, pAS2-1hD52) (other)
chain: MKLLSSIEQACDICRLKKLKCSKEKPKCAKCLKNNWECRYSPKTKRSMDRGEQGLLRTDPVPEEGEDVAATISATETLSEEEQEELRRELAKVEEEIQTLSQVLAAKEKHLAEIKRKLGINSLQELKQNIAKGWQDVTATSAYKKTSETLSQAGQKASAAFSSVGSVITKKLEDVKNSPTFKSFEEKVENLKSKVGGTKPAGGDFGEVLNSAANASATTTEPLPEKTQESL
notes: range 1-47; Fusion expressed in yeast; also called pAS2-1D52; full-length hD52 bait
B2: mD52(95-185) bait (GAL4 DNA-binding domain fused to the C-terminal half of mD52, pAS2-1mD52(95-185)) (other)
chain: MKLLSSIEQACDICRLKKLKCSKEKPKCAKCLKNNWECRYSPKTKRSAYKKTSETLSQAGQKASAAFSSVGSVITKKLEDVKNSPTFKSFEEKVENLKSKVGGAKPAGGDFGEVLNSTANATSTMTTEPPPEQMTESP
notes: range 1-47
B3: hD53 interactor (GAL4 activation domain fused to full-length hD53, pACT2hD53) (other)
chain: ANFNQSGNIADSSLSFTFTNSSNGPNLITTQTNSQALSQPIASSNVHDNFMNNEITASKIDDGNNSKPLSPGWTDQTAYNAFGITTGMFNTTTMDDVYNYLFDDEDTPPNPKKEMEAQAQGLLETEPLQGTDEDAVASADFSSMLSEEEKEELKAELVQLEDEITTLRQVLSAKERHLVEIKQKLGMNLMNELKQNFSKSWHDMQTTTAYKKTHETLSHAGQKATAAFSNVGTAISKKFGDMSYSIRHSISMPAMRNSPTFKSFEERVETTVTSLKTKVGGTNPNGGSFEEVLSSTAHASAQSLAGGSRRTKEEELQC

Test [1] concerns the target eukaryotic initiation factor 4AII library interactor (pAD-GAL4 construct) (human, UniProt P04386 761-881; Q14240 1-407, limits assumed). Description: yeast two-hybrid, retransfection of a library interactor in Hf7c. The protocol: Transformants were plated onto solid SD/-His-Trp-Leu (incorporating 35 mM 3-AT in the case of Y190 transformants) and incubated for up to 14 days at 30° C. […] Colonies which remained His+, and in the case of Y190 co-transformants, were also lacZ+, were re-streaked onto fresh plates to check that all colonies were of uniform phenotype. After 6 days incubation at 30° C., yeast colonies were directly harvested, and plasmid DNA was isolated and used to transfect XL1 Blue. Mini-preparations of plasmid DNA were performed for at least 5 XL1 Blue colonies per transfection, with the results of restriction digests differentiating potential interactors from bait plasmids. […] Phenotypes of resulting co-transfectants were assayed quantitatively and/or qualitatively as described above.

Test [2] deals with B3. Nature of the test: yeast two-hybrid, quantitative β-galactosidase assay in Y190. The procedure:
Interactions between baits and interactors were assessed by qualitatively and/or quantitatively determining HIS3 and lacZ reporter gene activity in Y190 co-transfectants. […] For quantitative assessment of interactions, β-galactosidase activity was measured using the substrate o-nitrophenyl β-D-galactopyranoside (ONPG) in liquid cultures (SD/-His-Trp-Leu +35 mM 3-AT) of Y190 co-transfectants.

For test [3], the target named is T1, mD52 bait (GAL4 DNA-binding domain fused to full-length mD52, pAS2-1mD52) (mouse, UniProt P04386 1-47 (Saccharomyces cerevisiae entry), limits assumed). Nature of the test: cell-based or functional assay.
Test [4] addresses hD53 bait (GAL4 DNA-binding domain fused to full-length hD53, pAS2-1hD53) (human, UniProt P04386 1-47 (Saccharomyces cerevisiae entry), limits assumed). Nature of the test: cell-based or functional assay.
Test [5] has as its target hD54+ins2 bait (GAL4 DNA-binding domain fused to hD54+ins2, pAS2-1hD54+ins2) (human, UniProt P04386 1-47 (Saccharomyces cerevisiae entry), limits assumed). Nature of the test: cell-based or functional assay.
Test [6] deals with hD54-ins2 bait (GAL4 DNA-binding domain fused to hD54-ins2, pAS2-1hD54-ins2) (human, UniProt P04386 1-47 (Saccharomyces cerevisiae entry), limits assumed). Nature of the test: cell-based or functional assay.
For test [7], the target named is B1. Nature of the test: cell-based or functional assay.
For test [8], the target named is T2, GAL4 DNA-binding domain alone (empty pAS2-1 vector, negative control bait) (UniProt P04386 1-47, limits assumed).
T2 chain (looked up): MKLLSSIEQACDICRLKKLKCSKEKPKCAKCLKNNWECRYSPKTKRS
Nature of the test: cell-based or functional assay.

Test [9] addresses mD52(1-95) bait (GAL4 DNA-binding domain fused to the N-terminal half of mD52, pAS2-1mD52(1-95)) (mouse, UniProt P04386 1-47 (Saccharomyces cerevisiae entry)). Description: cell-based or functional assay.
In test [10] the target is T1, mD52 bait (GAL4 DNA-binding domain …). Nature of the test: cell-based or functional assay. This is another data set of the same source.
The target in test [11] is B2. Description: cell-based or functional assay.

Read-outs that look alike come from different tables or passages of the source.

As for B1, the binding result in [1] is “no binding”.
For the molecule B2, the binding result in test [2] and in test [1] was “no binding” in each case.
For B3, the “β-galactosidase activity, yeast two-hybrid (Y190)” value in test [3] was 6.07 β-galactosidase activity units (positive control = 1000); in test [4], 18.1 β-galactosidase activity units (positive control = 1000); in [5] it was 11.7 β-galactosidase activity units (positive control = 1000); in test [6] it was 17.6 β-galactosidase activity units (positive control = 1000); in [7] it was 15.2 β-galactosidase activity units (positive control = 1000); in test [8], 0 β-galactosidase activity units (positive control = 1000). In addition, the results for the “β-galactosidase activity, yeast two-hybrid (Y190)” value in [9], in [10] and in [11] were 6.95 β-galactosidase activity units (positive control = 1000), 5.44 β-galactosidase activity units (positive control = 1000) and 0.5 β-galactosidase activity units (positive control = 1000), respectively.
